The record followed here is article PMC11638070.

The target of the assay is mitochondrial heat shock protein 60 V72I (mtHsp60^V72I) (human) (UniProt P10809).

On to “mtHsp10 (from UniProt P61604 1-102) (natural protein)”, for which the steady-state ATPase activity of mtHsp60^V72I (500 nM monomer) against mtHsp10 (twofold series from 10 µM monomer); ~21 pmol ATP per min without mtHsp10 came out at 31 pmol/min.
